Positions of bridges follow the written chain, without caps; N, C: chain ends. Non-standard residues stand in square brackets, D forms with d. *: point of attachment. dPhe(4-CONH2) = NC(=O)c1ccc(C[C@@H](N)C(=O)O)cc1; Phe(4-Cl) = N[C@@H](Cc1ccc(Cl)cc1)C(=O)O; Nicotinoyl = O=C(c1cccnc1)*
How the values were obtained:
Assay in all cases: cell-based or functional assay
[1] = biological target: somatostatin receptor SSTR4 (UniProt P31391 1-388)
[2] = biological target: somatostatin receptor SSTR5 (UniProt P35346 1-364)
[3] = biological target: somatostatin receptor type 2 (SSTR2) (UniProt P30874 1-369)
[4] = biological target: somatostatin receptor SSTR3 (UniProt P32745 1-418)
[5] = biological target: somatostatin receptor SSTR1 (UniProt P30872 1-391)
Chain of somatostatin receptor SSTR1 (P30872 whole entry): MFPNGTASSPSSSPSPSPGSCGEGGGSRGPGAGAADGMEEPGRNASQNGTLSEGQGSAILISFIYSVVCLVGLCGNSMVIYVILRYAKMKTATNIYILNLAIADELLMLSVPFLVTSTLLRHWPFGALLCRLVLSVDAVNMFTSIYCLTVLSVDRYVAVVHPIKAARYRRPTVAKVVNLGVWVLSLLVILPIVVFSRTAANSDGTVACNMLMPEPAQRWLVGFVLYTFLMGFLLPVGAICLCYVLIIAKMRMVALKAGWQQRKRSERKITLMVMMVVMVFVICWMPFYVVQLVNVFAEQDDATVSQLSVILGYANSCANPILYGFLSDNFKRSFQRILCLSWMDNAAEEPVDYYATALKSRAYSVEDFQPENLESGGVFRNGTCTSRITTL

Chain of somatostatin receptor type 2 (SSTR2) (P30874 whole entry): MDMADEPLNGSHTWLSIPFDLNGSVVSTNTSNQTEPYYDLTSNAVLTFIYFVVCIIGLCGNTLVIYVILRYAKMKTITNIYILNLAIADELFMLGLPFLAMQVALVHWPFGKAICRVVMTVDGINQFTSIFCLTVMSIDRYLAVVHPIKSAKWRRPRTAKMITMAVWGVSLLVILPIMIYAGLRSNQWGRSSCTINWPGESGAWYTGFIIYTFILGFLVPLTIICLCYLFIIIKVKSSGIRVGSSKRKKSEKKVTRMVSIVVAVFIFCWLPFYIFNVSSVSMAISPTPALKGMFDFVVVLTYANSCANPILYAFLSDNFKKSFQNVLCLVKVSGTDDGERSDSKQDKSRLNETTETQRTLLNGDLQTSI
Chain of somatostatin receptor SSTR4 (P31391 whole entry): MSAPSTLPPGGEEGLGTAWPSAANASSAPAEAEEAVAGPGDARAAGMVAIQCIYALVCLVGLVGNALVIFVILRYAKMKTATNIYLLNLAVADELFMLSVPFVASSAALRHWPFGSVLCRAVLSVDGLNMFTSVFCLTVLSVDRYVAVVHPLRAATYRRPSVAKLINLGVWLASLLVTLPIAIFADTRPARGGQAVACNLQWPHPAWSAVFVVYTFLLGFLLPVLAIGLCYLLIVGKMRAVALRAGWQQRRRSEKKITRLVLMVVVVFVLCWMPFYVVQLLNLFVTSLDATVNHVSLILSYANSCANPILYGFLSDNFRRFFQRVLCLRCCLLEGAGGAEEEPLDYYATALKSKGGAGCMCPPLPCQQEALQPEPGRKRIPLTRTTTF
Chain of somatostatin receptor SSTR5 (P35346 whole entry): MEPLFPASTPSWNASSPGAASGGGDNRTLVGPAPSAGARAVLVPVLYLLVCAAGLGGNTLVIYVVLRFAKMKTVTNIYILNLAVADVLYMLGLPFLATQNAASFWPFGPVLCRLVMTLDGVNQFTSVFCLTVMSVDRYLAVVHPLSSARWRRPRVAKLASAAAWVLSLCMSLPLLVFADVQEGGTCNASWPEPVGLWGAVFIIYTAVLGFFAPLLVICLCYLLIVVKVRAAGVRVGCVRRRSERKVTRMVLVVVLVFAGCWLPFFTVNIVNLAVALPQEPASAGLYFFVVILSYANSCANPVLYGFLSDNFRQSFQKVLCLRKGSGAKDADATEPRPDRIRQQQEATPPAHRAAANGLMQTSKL
Chain of somatostatin receptor SSTR3 (P32745 whole entry): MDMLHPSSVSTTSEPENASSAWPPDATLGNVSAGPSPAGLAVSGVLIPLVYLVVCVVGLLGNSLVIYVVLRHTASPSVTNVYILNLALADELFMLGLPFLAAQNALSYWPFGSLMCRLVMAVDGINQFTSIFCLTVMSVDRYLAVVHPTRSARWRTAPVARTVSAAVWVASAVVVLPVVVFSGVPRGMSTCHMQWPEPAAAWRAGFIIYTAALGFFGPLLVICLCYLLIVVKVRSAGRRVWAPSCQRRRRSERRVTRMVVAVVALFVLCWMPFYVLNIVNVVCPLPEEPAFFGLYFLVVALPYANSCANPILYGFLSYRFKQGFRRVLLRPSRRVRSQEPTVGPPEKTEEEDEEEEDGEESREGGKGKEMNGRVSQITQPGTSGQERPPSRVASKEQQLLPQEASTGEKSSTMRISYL

Binder	IC50 (PathHunter β-Arrestin, antagonist mode) [1] [nM]	IC50 (PathHunter β-Arrestin, antagonist mode) [2] [nM]	IC50 (PathHunter β-Arrestin, antagonist mode) [3] [nM]	IC50 (PathHunter β-Arrestin, antagonist mode) [4] [nM]	IC50 (PathHunter β-Arrestin, antagonist mode) [5] [nM]
XXYXKTCX (HELM PEPTIDE1{[N[C@@H](Cc1ccc(Cl)cc1)C(=O)[*:2]].[dC].Y.[NC(=O)c1ccc(C[C@@H](N[*:1])C(=O)[*:2])cc1].K.T.C.[dY].[am]}$PEPTIDE1,PEPTIDE1,2:R3-7:R3$$$V2.0; SMILES C[C@@H](O)[C@@H]1NC(=O)[C@H](CCCCN)NC(=O)[C@@H](Cc2ccc(C(N)=O)cc2)NC(=O)[C@H](Cc2ccc(O)cc2)NC(=O)[C@H](NC(=O)[C@@H](N)Cc2ccc(Cl)cc2)CSSC[C@@H](C(=O)N[C@H](Cc2ccc(O)cc2)C(N)=O)NC1=O) [Compound 4: H-Cpa-cyclo[DCys-Tyr-D-(4-carbamoyl)Phe-Lys-Thr-Cys]-DTyr-NH2]	> 1000	> 1000	17	> 1000	> 1000
XXYXKTCX (HELM PEPTIDE1{[N[C@@H](Cc1ccc(Cl)cc1)C(=O)[*:2]].[dC].Y.[CCCCCNc1ccc(C[C@@H](N[*:1])C(=O)[*:2])cc1].K.T.C.[dY].[am]}$PEPTIDE1,PEPTIDE1,2:R3-7:R3$$$V2.0; SMILES CCCCCNc1ccc(C[C@H]2NC(=O)[C@H](Cc3ccc(O)cc3)NC(=O)[C@H](NC(=O)[C@@H](N)Cc3ccc(Cl)cc3)CSSC[C@@H](C(=O)N[C@H](Cc3ccc(O)cc3)C(N)=O)NC(=O)[C@H]([C@@H](C)O)NC(=O)[C@H](CCCCN)NC2=O)cc1) [Compound 12: H-Cpa-cyclo[D-Cys-Tyr-D-Phe(4-n-pentylamino)-Lys-Thr-Cys]-D-Tyr-NH2]	> 1000	> 1000	17	> 1000	> 1000
H-[Phe(4-Cl)][dC]Y[dTyr(O-2-(4-morpholinyl)ethyl)]KTC[dY]-NH2 (disulfide 2-7) [Compound 13: H-Cpa-cyclo[DCys-Tyr-D-(2-(4-morpholinyl)ethyl)Tyr-Lys-Thr-Cys]-DTyr-NH2]	–	–	334	> 1000	–
XXYXKTCX (HELM PEPTIDE1{[N[C@@H](Cc1ccc(Cl)cc1)C(=O)[*:2]].[dC].Y.[O=C([C@@H](Cc1ccc(NS(=O)(=O)c2ccccc2)cc1)N[*:1])[*:2]].K.T.C.[dY].[am]}$PEPTIDE1,PEPTIDE1,2:R3-7:R3$$$V2.0; SMILES C[C@@H](O)[C@@H]1NC(=O)[C@H](CCCCN)NC(=O)[C@@H](Cc2ccc(NS(=O)(=O)c3ccccc3)cc2)NC(=O)[C@H](Cc2ccc(O)cc2)NC(=O)[C@H](NC(=O)[C@@H](N)Cc2ccc(Cl)cc2)CSSC[C@@H](C(=O)N[C@H](Cc2ccc(O)cc2)C(N)=O)NC1=O) [Compound 14: H-Cpa-cyclo[DCys-Tyr-D-4-(benzenesulfonyl)Aph-Lys-Thr-Cys]-DTyr-NH2]	> 1000	> 1000	21	> 1000	> 1000
XXYXKTCX (HELM PEPTIDE1{[N[C@@H](Cc1ccc(Cl)cc1)C(=O)[*:2]].[dC].Y.[O=C(Nc1ccccc1)Nc1ccc(C[C@@H](N[*:1])C(=O)[*:2])cc1].K.T.C.[dY].[am]}$PEPTIDE1,PEPTIDE1,2:R3-7:R3$$$V2.0; SMILES C[C@@H](O)[C@@H]1NC(=O)[C@H](CCCCN)NC(=O)[C@@H](Cc2ccc(NC(=O)Nc3ccccc3)cc2)NC(=O)[C@H](Cc2ccc(O)cc2)NC(=O)[C@H](NC(=O)[C@@H](N)Cc2ccc(Cl)cc2)CSSC[C@@H](C(=O)N[C@H](Cc2ccc(O)cc2)C(N)=O)NC1=O) [Compound 15: H-Cpa-cyclo[D-Cys-Tyr-D-Phe(4-phenylureido)-Lys-Thr-Cys]-D-Tyr-NH2]	> 1000	> 1000	1	> 1000	> 1000
H-[Phe(4-Cl)][dC]Y[dAph(Asp)]KTC[dY]-NH2 (disulfide 2-7) [Compound 18: H-Cpa-cyclo[DCys-Tyr-D-4-(Asp)Aph-Lys-Thr-Cys]-DTyr-NH2]	–	–	> 1000	> 1000	–
H-[Phe(4-Cl)][dC]Y[dAph(Asn)]KTC[dY]-NH2 (disulfide 2-7) [Compound 19: H-Cpa-cyclo[DCys-Tyr-D-4-(Asn)Aph-Lys-Thr-Cys]-DTyr-NH2]	–	–	> 1000	> 1000	–
H-[Phe(4-Cl)][dC]Y[dAph(Gln)]KTC[dY]-NH2 (disulfide 2-7) [Compound 21: H-Cpa-cyclo[DCys-Tyr-D-4-(Gln)Aph-Lys-Thr-Cys]-DTyr-NH2]	–	–	> 1000	> 1000	–
H-[Phe(4-Cl)][dC]Y[dHoCit]KTC[dY]-NH2 (disulfide 2-7) [Compound 2: H-Cpa-cyclo[DCys-Tyr-DHoCit-Lys-Thr-Cys]-DTyr-NH2]	–	–	181	> 1000	–
H-[Phe(4-Cl)][dC]Y[dAph(Cit)]KTC[dY]-NH2 (disulfide 2-7) [Compound 22: H-Cpa-cyclo[DCys-Tyr-D-4-(Cit)Aph-Lys-Thr-Cys]-DTyr-NH2]	–	–	417	> 1000	–

The next lines start with the values.

IC50 (PathHunter β-Arrestin, antagonist mode) [1] [nM]	IC50 (PathHunter β-Arrestin, antagonist mode) [2] [nM]	IC50 (PathHunter β-Arrestin, antagonist mode) [3] [nM]	IC50 (PathHunter β-Arrestin, antagonist mode) [4] [nM]	IC50 (PathHunter β-Arrestin, antagonist mode) [5] [nM]	Binder
> 1000	> 1000	34	> 1000	> 1000	XXYXKTCX (HELM PEPTIDE1{[N[C@@H](Cc1ccc(Cl)cc1)C(=O)[*:2]].[dC].Y.[NC(=O)NCCC[C@@H](N[*:1])C(=O)[*:2]].K.T.C.[dY].[am]}$PEPTIDE1,PEPTIDE1,2:R3-7:R3$$$V2.0; SMILES C[C@@H](O)[C@@H]1NC(=O)[C@H](CCCCN)NC(=O)[C@@H](CCCNC(N)=O)NC(=O)[C@H](Cc2ccc(O)cc2)NC(=O)[C@H](NC(=O)[C@@H](N)Cc2ccc(Cl)cc2)CSSC[C@@H](C(=O)N[C@H](Cc2ccc(O)cc2)C(N)=O)NC1=O) [Compound 1: H-Cpa-cyclo[D-Cys-Tyr-D-Cit-Lys-Thr-Cys]-D-Tyr-NH2]
> 1000	> 1000	31	> 1000	> 1000	XXYXKTCX (HELM PEPTIDE1{[N[C@@H](Cc1ccc(Cl)cc1)C(=O)[*:2]].[dC].Y.[NC(=O)NCc1ccc(C[C@@H](N[*:1])C(=O)[*:2])cc1].K.T.C.[dY].[am]}$PEPTIDE1,PEPTIDE1,2:R3-7:R3$$$V2.0; SMILES C[C@@H](O)[C@@H]1NC(=O)[C@H](CCCCN)NC(=O)[C@@H](Cc2ccc(CNC(N)=O)cc2)NC(=O)[C@H](Cc2ccc(O)cc2)NC(=O)[C@H](NC(=O)[C@@H](N)Cc2ccc(Cl)cc2)CSSC[C@@H](C(=O)N[C@H](Cc2ccc(O)cc2)C(N)=O)NC1=O) [Compound 7: H-Cpa-cyclo[DCys-Tyr-D-(4-ureidomethyl)Phe-Lys-Thr-Cys]-DTyr-NH2]
–	–	243	> 1000	–	H-[Phe(4-Cl)][dC]Y[dAph(2-(4-morpholinyl)ethyl)]KTC[dY]-NH2 (disulfide 2-7) [Compound 11: H-Cpa-cyclo[DCys-Tyr-D-4-(2-(4-morpholinyl)ethyl)Aph-Lys-Thr-Cys]-DTyr-NH2]
–	–	234	> 1000	–	H-[Phe(4-Cl)][dC]Y[dAph(Ser)]KTC[dY]-NH2 (disulfide 2-7) [Compound 16: H-Cpa-cyclo[DCys-Tyr-D-4-(Ser)Aph-Lys-Thr-Cys]-DTyr-NH2]
–	–	> 1000	> 1000	–	H-[Phe(4-Cl)][dC]Y[dAph(Lys)]KTC[dY]-NH2 (disulfide 2-7) [Compound 17: H-Cpa-cyclo[DCys-Tyr-D-4-(Lys)Aph-Lys-Thr-Cys]-DTyr-NH2]
–	–	924	> 1000	–	H-[Phe(4-Cl)][dC]Y[dAph(Glu)]KTC[dY]-NH2 (disulfide 2-7) [Compound 20: H-Cpa-cyclo[DCys-Tyr-D-4-(Glu)Aph-Lys-Thr-Cys]-DTyr-NH2]
–	–	458	> 1000	–	H-[Phe(4-Cl)][dC]Y[dAph(Val)]KTC[dY]-NH2 (disulfide 2-7) [Compound 23: H-Cpa-cyclo[DCys-Tyr-D-4-(Val)Aph-Lys-Thr-Cys]-DTyr-NH2]
> 1000	> 1000	0.96	> 1000	> 1000	H-[Phe(4-Cl)][dC]Y[dPhe(4-CONH2)]K(Me)TC[dY]-NH2 (disulfide 2-7; SMILES CNCCCC[C@@H]1NC(=O)[C@@H](Cc2ccc(C(N)=O)cc2)NC(=O)[C@H](Cc2ccc(O)cc2)NC(=O)[C@H](NC(=O)[C@@H](N)Cc2ccc(Cl)cc2)CSSC[C@@H](C(=O)N[C@H](Cc2ccc(O)cc2)C(N)=O)NC(=O)[C@H]([C@@H](C)O)NC1=O) [Compound 24: H-Cpa-cyclo[D-Cys-Tyr-D-Phe(4-carbamoyl)-Lys(Nε-Me)-Thr-Cys]-D-Tyr-NH2]
–	–	251	> 1000	–	H-[Phe(4-Cl)][dC]Y[dK](Nicotinoyl)KTC[dY]-NH2 (disulfide 2-7; SMILES C[C@@H](O)[C@@H]1NC(=O)[C@H](CCCCN)NC(=O)[C@@H](CCCCNC(=O)c2cccnc2)NC(=O)[C@H](Cc2ccc(O)cc2)NC(=O)[C@H](NC(=O)[C@@H](N)Cc2ccc(Cl)cc2)CSSC[C@@H](C(=O)N[C@H](Cc2ccc(O)cc2)C(N)=O)NC1=O) [Compound 3: H-Cpa-cyclo[DCys-Tyr-D-(Nε-nicotinoyl)Lys-Lys-Thr-Cys]-DTyr-NH2]

From patent publication US20190040102A1 (CDRD VENTURES, published 2019)
